Laboratory results taken from the nanobody polyreactivity screen of Harvey et al. (2022).

Assay: yeast display, Sf9 membrane polyspecificity reagent, FACS + sequencing; frameworks hold sequencing errors
How it was run: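 In a synthetic yeast display library (Saccharomyces cerevisiae BJ5465), nanobody expression was induced with galactose for 36–48 hours. FACS gates were set low and high (top ~1%) using anti-HA fluorescence for expression and streptavidin fluorescence for binding of the Sf9 membrane reagent. Each polyreactivity label is drawn from the gate of origin.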

Sequence	polyreactivity (PSR sort gate)
QVQLVESGGGLVPAGGSLRLICAGSAFTFRSYAIGWYRQAPGQERELVAAISLGGTSTYYADSVKGRFTISRDNAKNTVYLQMNSLKPEDTAVYSCAARSYGHYGYWGQGTQVTVSS	high polyreactivity
QVQLVESGGGLVQAGGSLRLSCAASGSIFYPYTMGWYRQAPGKERELVAAISGGCRTYYADSVKGRFTISRDNAKNTVYLQMNSLKPEDTAVYYCAARYGYRWLVGKYEYWGQGTQVTVSS	high polyreactivity
QGQLVESGGGLVQAGGSLRLSCAASGRTFYRNAMGWYRQAPGKEREFVAAITSIGGATYYADSVKGRFTISRDNAKNTVDLQMNSLKPEDTAVYYCAAKGFRYPEYDYWGQGTQVTVSS	low polyreactivity
QVQLVESGGGLVQAGGSHRLSCAASGIIFWRYAMGWYRQAPGKERELVAGITSRGGSTYYADSVKGRFTISRDNAKNTVYLQMNSLKPEDTAVYFCNADWFGQLWWGVDYWGQGTQVTVSS	high polyreactivity
QVQLVESGGGLVQAGGSLRLSCAASGFIFYSNAMGWYRQEPGKERELVAAITSGGGSTYYADSVKGRFTISRDNAKNTVYLQMNSLKPEDTAVYYCAVSIGRYPYRYGYWGQGTQVTVSS	high polyreactivity
QVQLVESGGGLVQAGGSLRLSCAASGSTFEYYAMGWDRQAPGKERELVAAISITGGSSYYADSVKGRFTISRDNAKNTVYLQMNSLKPEDTAVCYCAASVPLARRLGYPWRRAGYNYWGQGTQVTVSS	high polyreactivity
QVQLVESGGGLVQAGGSLRLSCAASGRIFYDYAMGWYRQAPGKQREFVAAIRWRGGSTYYADSVKGRFTISRDNAMNTVYLQMNSLKPEDTAVYYCATKSYYKFGYWGQGSQVTVSS	high polyreactivity
QVQLVESGGGLVQAGGSLRLSCAASGSIFSPYAMGWYRQAPGKERELVAAISYGVGNTYYADSVKGRFTISRDNAKNTVYLQMNSLKPEDTAVYYCAAEEYDYVYPHYFTKGYYWGQGTQVTVSS	high polyreactivity
QVQLVEPGGGLVQAGGSLRLSCAASGSTFVEYDMGWYRQAPGKERELVAGINSGDRTNYADSVKGRFTISRDNEKNTVYLQMNSLKPEDTAVYYCAVDYRSYAYDYWGQGTQVSVSS	low polyreactivity
QVQLVESGGGLVQSGGSLRLSCAASGSIFDFYVMGWYRQAPGKERELVAAITWSDGSTYYADSVKGRFTISRDNAKNTVYLQMNSLKPEDTAVYYCNAGYFPLLGYPADAIGYDYWGQGTQVTVSS	low polyreactivity
QVQRVESGGGLVQAGGSLRLSCAASGFIFDDKAMGWYRQAPGKERELVAAITSGGGSTYYADSVKGRFTISRDNAKNTVYLQMNSLKPEDTAVYYCNAVPSQHDEFDYWGQGTQVTVSS	low polyreactivity
QVQLVESGGGLVQAGGSLRLSCAASGRTFQQNAMGWYRQAPGKERELVATIRNGGNTNYADSVKGRFTISRDNAKNTVYLQLNSLKPEDTAVYYSAARVYTHGLWGYNYWGQGTQVTVSS	high polyreactivity
QVQLVESGGGLVQAGGSLRLSCAASGITFNKNAMGWYRQAPGKEREFVAAITRRGGSTYYADSVKGRFTISRDNAKNTVYLQMNSLKPEDTAVYYCAARPYWSYRRYDYWGQGTQVTVSS	high polyreactivity
QVQLVESGGGLVQAGGSLRLSCAASGSTFGYYTMGWYRQAPGKERQLVAAISWSGGSTYYADSVKGRFTISRDNAKNTVYLLMNSLKPEDTAVYYCARGSQYRLWRTPHYYWGQGTQVTVSS	high polyreactivity
QVQLVESGRGLVQAGGSLRLSCAASGRIFRWYDMGWYRKAPGKERELVAAISSRGGSTYYADSVKGRFTISRDNAKNTVYLQMNSLKPEDTAVYYCAADTSGWQPRYDYWGQGTQVTVSS	high polyreactivity
QVQLVESGGGLVQAGGSLRLSCAASGSIFQSYDMGWYRQAPGKERELVAAIRSGDSTYYADSVKGRFTISRDNAKNTVYLQMNSLKPEDTAVYYCNKDEATFLSKDGYWGQGTQVTVSS	low polyreactivity
QVQLVESGGGLVQAGGSLRLSCAASGRIFARNAMGWYRQAPGKEREFVAAITHSGGNTYYADSVKGRFTISRDNAKNTVYLQMNSLKPEATAVYYCAKDYRSTKYDYWGQGTQVTVSS	low polyreactivity
QVQLVESGGGLVQAGGSLRLSCAASGRTFYVNTMRWYRQAPGKEREFVARITRGGSTYYADSVKGRFTISRDNAMNTVYLEMNSLKPEDTAFYYCGTDHFPVYSTHVIYEFDYWGQGTQVTVSS	low polyreactivity
QVQLVESGAGLVQAGGSLRLSCAASGITFYDNDMGWYRQPPGKERELVAGITGTTVGTYYADSVKGRFTISRDIAKNTVYLQMNSLKPEDTAVYYALLTVVVPYQYYSLSLNTLDSWGQGTQVTVSS	low polyreactivity
QVQLVESGGGLVQAGGSLRLICAASGRIFRGNAMGWYRQAPGKEMELVDTITIRGGSTYYADSVKGRFTISRDNAKNTVYLKMNSLIPEDTAVYYCNTRTYGYLTQKYDYWGQGTQVTVSS	high polyreactivity
QVQLVESGGGLVQAGGSLRLSCAASGRTLYQYAMGWYRQAPGKERELVAVITSRGGSTNYADSVKGRFTISRDNAKNTVYLQMNSLKPEDTAVYYCAVLYPKYGKRYGYWGQGSQVTVSS	high polyreactivity
QVQLEESGGGLVQAGGSLRFSCAASGSTFLHYAMGWYRPAPGQERALVAAITWSGGSTYYADSVKGRFTISRDNAKNTVSLQMNSLKPEDTAVYYCAADLTYLYDYHYDYWGQGTQVTVSS	low polyreactivity

Sequence	polyreactivity (PSR sort gate)
QVQLVESGGGLVQAGGSLRLSCAASGSIFTVNAMGWYRQAPGKERELVAAISSGGSTHYADSVKGRFTISRDNAKNTVYLQMNSLKPEDTAVYYCAAEVSYYLNEFDYWGQGTQVTVSS	low polyreactivity
QVQLVESGGGLVQAGGSLRLSCAASGRIFRYYAMGWYRQAPAKERELVASISRRGGSTNYADSVKGRFTISRDNAKNTVYLQMNSLKPEDTAVYYCNAENWSPRGLYNYWGQGTQVTVSS	high polyreactivity
QVQLVESGGGLVQAGGSLRLSCAASGRIFFTKAMGWYRQAPGKERELVAAISKSGARTYYADSVKGRFTISRDNAKNTVYLQMNSLKPEDTAVYYCAADVSVSGYYYWGQGTQVTVSS	high polyreactivity
QVQLVESGGGLVQAGGSLRLSCAASGSTFYLNAMGWYRQAPGKERELVATKNSSGSTYNADSVKGRFTISRDNAKNTVYLQMNILKPEDTAVYYCNAYGSDRLSLDDYWGQGTQVTVSS	low polyreactivity
QVQLVESGGGLVQAGGSLRLSCAASGSILSFNAMGWYRQAPGKERELVAAICRGGSTYYADSVKGRFTISRDNAKNTVYLQMNSLKPEDTAVYYCAVQLRRHVDMDYWGQGTQVTVSS	high polyreactivity
QVQLVESGGGLVQAGGSLRLSCAASGRIFYRYAMGWYRQAPGKERELVAAINDGGSTYYADSVKGRFTISRDNAKNTVYLQMNSLKAEDTAVYYCNVVNEHQSDFVVPFDYNHWGQGTQVTVSS	low polyreactivity
QVQLVESGGGLVQAGASIRLSCAASGSTFYTYDMGRYIQAPGKERELVAVITPRSGTTSYADSVKGRFTISRDYAKNTVYLQMNSLKPEDTAVYYCNVYIPYSYGEYDYWGQGTQVTVSS	high polyreactivity
QVQLVESGGGLVQAGGSLRLSCAASGSTFARYAMGWYRQAPGKERELVASITQSSGSTYYADSVKGRFTISRDNAKSTVYLQMNSLKPEDTAVYYCAKVISYGPVPDRYDYWGQGTQVTVSS	high polyreactivity
QVQLVESGGGLVQAGGSLRLSCAATGRIFIDNTMGWYRQAPGKERELVAAISWSGGSTYYADSVKGRFTISRDNAKNTVYLQMNCLKPEDTAVYYCAARRLRSNGRTWAVTYDYWGQGTQVTVSS	low polyreactivity
QVQLVESGGGLVQAGGSLRLSCAASGLIFAYYAMGWYRQAPGKERELVAAISWSGDNTYYADSVKGRFTISRDNAKNTVYLEMNSLKPEDTAVYYCNVDTYGAWSWYYGLHHMDYWGQGTQVTVSS	low polyreactivity
QVQLVESGGGLVQAGGSLRLSCAASGSTFFRYAMGWYRQAPGKERELVAAITSGGNTYYADSVKGRFTISRDNAKNTVYLQMNSLIPEDTAVYYCAVVFWQLAHRYDYWGQGTQVTVSS	low polyreactivity
QVQLVESGGGLVQAGGSLRLSCAASGRIFSKYAMGWNRQAPGKERELVAAITSSTKYADSVKGRFTISRDNAKNTVYLQMNSLKPEDTAVYYCNAEFGWHTYYGADFKMDYWGQGTQVTVSS	high polyreactivity
QVQLVESGGGLVQAGGSLRLSCAASGSTFFIYAMGRYRQAPGEERELVAAITSGGTYADSVKGRFTISRDNAKNTVYLQMNSLKPVDTAVYYCNAGNNVVVDYDYWGQGTQVTVSS	low polyreactivity
QVHLVESGGGLVQAGGSLRLSCAASGSLFYYNAMGWYRPAPGKERDLVAAINSNGGSTYYADTVKGRFTISRDNAKNTVYLQMNSLKPEDTAVYSSAAKYYFNWHRQGYDYWGQGTQVTVSS	high polyreactivity
QVQLVESGGGLVQAGGSLRLSCAASGSTFPFYVMGWYRQAPGKERELVASIRGTGGNTYYADSVKGRFTISRDNAKNTVYLQMNSLKPEDTAVYYCNAVYRLSHYDLDYWGQGTQVTVSS	high polyreactivity
QVQLVESGGGLVQAGGSLRLSCAASGITFSFYAMGWYRQAPRKERELVAGITRSGGDTYYADSVKGRFTISRDNAKNTVYLQMNSLKPEDTAVYDCADAWFFYRRQYTFFAGRMDYWGQGTQVTVSS	high polyreactivity
QVQLVESGGGLVQAGGSLRLSCAASGRIFVTYGMGWYRQAPGKERELVAAINWRGGSTYYADSVKGRFTISRDNAKNTVYLQMNSLKPEDTAVYYCNARLYRNRLGYWGQGTQVTVSS	high polyreactivity
QVQLVESGGGLVQAGGSLSLSCAASGITFVFYTMGWYRQAPGKERELVAAISRSGASTYYADSVKGRFTISRDNAKNTVYLQMNSLKPQDTAVDYCAADRGYRFRMDYWGQGTQVTVSS	high polyreactivity
QVKLVESGGVLVQAGGSLRLSCAASGRIFGTYAMGWYRQAPGKERELVASISYSDGSTYADSVKGRFTISRDNAKNTVYLQMNSLKPEDTAVYYCAADVYYYAQCEDGYWGQGTQVTVSS	low polyreactivity
QVQLVESGGGLVQAGGSLRLSCAASGRTFGYYAMGWYRQAPGKERELVAAITDSGDITYYADSVKGRFTISRDNAKNTVYLQMNSLKPEDTAVYYCAADSYEFWSEVYTGESWGQGTQVTVSS	low polyreactivity
QVQLVESGGGLVQAGGSLRLSCAASGYTFLYYAMGWYRQAPGKEREFVAAISRSGGSTYYADSVKGRFTISRDNAKNTVYLQMNSLKPEDTAVYFCAARFRYQHQRGDYWGQGTQVTVSS	high polyreactivity
